# According to publication PMC5477170, “Biochemical characterization of an enantioselective esterase from Brevundimonas sp. LY-2” (Microbial Cell Factories, 2017):
# How the values were obtained:
# [1] = tested on: T1, CC(=O)Oc1ccc([N+](=O)[O-])cc1; assay: p-nitrophenyl ester hydrolysis, Lineweaver-Burk; format: biochemical, Brevundimonas sp. LY-2; details: pH and temperature not stated for this assay
# T1 construct: signal peptide (residues 1-28) removed; C-terminal His-tag, pET-29a(+); E. coli BL21(DE3); full ORF 306 aa; predicted 29,451 Da, SDS-PAGE ~30 kDa; gel filtration 62 kDa, dimer; N-terminus from primer (M)ATAEP
# Source text: (§1) p-nitrophenyl ester hydrolysis, Lineweaver-Burk on LacH
# [2] = tested on: T2, CCCC(=O)Oc1ccc([N+](=O)[O-])cc1; assay: p-nitrophenyl ester hydrolysis, Lineweaver-Burk; format: biochemical, Brevundimonas sp. LY-2; details: pH and temperature not stated for this assay
# T2 construct: signal peptide (residues 1-28) removed; C-terminal His-tag, pET-29a(+); E. coli BL21(DE3); full ORF 306 aa; predicted 29,451 Da, SDS-PAGE ~30 kDa; gel filtration 62 kDa, dimer; N-terminus from primer (M)ATAEP
# Source text: as §1
# [3] = tested on: T3, CCCCCC(=O)Oc1ccc([N+](=O)[O-])cc1; assay: p-nitrophenyl ester hydrolysis, Lineweaver-Burk; format: biochemical, Brevundimonas sp. LY-2; details: pH and temperature not stated for this assay
# T3 construct: signal peptide (residues 1-28) removed; C-terminal His-tag, pET-29a(+); E. coli BL21(DE3); full ORF 306 aa; predicted 29,451 Da, SDS-PAGE ~30 kDa; gel filtration 62 kDa, dimer; N-terminus from primer (M)ATAEP
# Source text: as §1
# [4] = tested on: T4, CCCCCCCC(=O)Oc1ccc([N+](=O)[O-])cc1; assay: p-nitrophenyl ester hydrolysis, Lineweaver-Burk; format: biochemical, Brevundimonas sp. LY-2; details: pH and temperature not stated for this assay
# T4 construct: signal peptide (residues 1-28) removed; C-terminal His-tag, pET-29a(+); E. coli BL21(DE3); full ORF 306 aa; predicted 29,451 Da, SDS-PAGE ~30 kDa; gel filtration 62 kDa, dimer; N-terminus from primer (M)ATAEP
# Source text: as §1
# [5] = tested on: CCOC(=O)C(C)OC(=O)c1cc(Oc2ccc(C(F)(F)F)cc2Cl)ccc1[N+](=O)[O-]; assay: purified protein; details: 50 mM sodium phosphate, pH 7.0, 40 °C
substance,measurement,setting,value
LacH (Brevundimonas sp. LY-2),Km,[1],147 ± 8 µM
same,kcat,[1],8.39 ± 0.28 s⁻¹
same,kcat/Km,[1],50100 M⁻¹ s⁻¹
same,Km,[2],185 ± 9 µM
same,kcat,[2],7.48 ± 0.45 s⁻¹
same,kcat/Km,[2],40400 M⁻¹ s⁻¹
same,Km,[3],208 ± 12 µM
same,kcat,[3],3.47 ± 0.13 s⁻¹
same,kcat/Km,[3],16700 M⁻¹ s⁻¹
same,Km,[4],335 ± 16 µM
same,kcat,[4],0.767 ± 0.06 s⁻¹
same,kcat/Km,[4],2290 M⁻¹ s⁻¹
same,Km,[5],67 ± 2 µM
same,kcat,[5],0.87 ± 0.09 s⁻¹
same,kcat/Km,[5],12900 M⁻¹ s⁻¹
